Reference: US20040198654A1 (Eli Lilly, published 2004)
Where no end group is shown, it is not given here.

Target: GLP-1 receptor
Assay: cell-based or functional assay

Binder: HVEGTYTSDVSSYLEEQAAKEFIAWLVKGRG-OH [Val^8-Tyr^12-Glu^22-GLP-1(7-37)OH]
- GLP-1 receptor activation relative to Val^8-GLP-1(7-37)OH: 2.7 fold of Val^8-GLP-1(7-37)OH

Binder: HVEGTFTSDVSSYLEEQALKEFIAWLVKGRG-OH [Val^8-Glu^22-Leu^25-GLP-1(7-37)OH]
- GLP-1 receptor activation relative to Val^8-GLP-1(7-37)OH: 2.8 fold of Val^8-GLP-1(7-37)OH

Binder: HVEGTFTSDLSSYLEGQAAKEFIAWLVKGRG-OH [Val^8-Leu^16-GLP-1(7-37)OH]
- GLP-1 receptor activation relative to Val^8-GLP-1(7-37)OH: 1.1 fold of Val^8-GLP-1(7-37)OH

Binder: HVEGTFTSDVSSYFEEQAAKEFIAWLVKGRG-OH [Val^8-Phe^20-Glu^22-GLP-1(7-37)OH]
- GLP-1 receptor activation relative to Val^8-GLP-1(7-37)OH: 2.7 fold of Val^8-GLP-1(7-37)OH

Binder: HVEGTYTSDVSSYLEGQAAKEFIAWLVKGRG-OH [Val^8-Tyr^12-GLP-1(7-37)OH]
- GLP-1 receptor activation relative to Val^8-GLP-1(7-37)OH: 1.7 fold of Val^8-GLP-1(7-37)OH

Binder: HVEGTFTSDVSSYLEEQAIKEFIAWLVKGRG-OH [Val^8-GLU^22-Ile^25-GLP-1(7-37)OH]
- GLP-1 receptor activation relative to Val^8-GLP-1(7-37)OH: 3.1 fold of Val^8-GLP-1(7-37)OH

Binder: HVEGTFTSDVSSYLEEQAAKEFIAWLVKGRH-OH [Val^8-Glu^22-His^37-GLP-1(7-37)OH]
- GLP-1 receptor activation relative to Val^8-GLP-1(7-37)OH: 4.7 fold of Val^8-GLP-1(7-37)OH

Binder: HVEGTFTSDVSSWLEEQAAKEFIAWLVKGRG-OH [Val^8-Trp^19-Glu^22-GLP-1(7-37)OH]
- GLP-1 receptor activation relative to Val^8-GLP-1(7-37)OH: 3.2 fold of Val^8-GLP-1(7-37)OH

Binder: HVEGTFTSDVSKYLEEQAAKEFIAWLVKGRG-OH [Val^8-Lys^18-Glu^22-GLP-1(7-37)OH]
- GLP-1 receptor activation relative to Val^8-GLP-1(7-37)OH: 2.5 fold of Val^8-GLP-1(7-37)OH

Binder: HVEGTFTSDFSSYLEEQAAKEFIAWLVKGRG-OH [Val^8-Phe^16-Glu^22-GLP-1(7-37)OH]
- GLP-1 receptor activation relative to Val^8-GLP-1(7-37)OH: 2.3 fold of Val^8-GLP-1(7-37)OH

Binder: HVEGTFTSDYSSFLEGQAAKEFIAWLVKGRG-OH [Val^8-Tyr^16-Phe^19-GLP-1(7-37)OH]
- GLP-1 receptor activation relative to Val^8-GLP-1(7-37)OH: 2.8 fold of Val^8-GLP-1(7-37)OH

Binder: HVEGTFTSDWSSYLEEQAVKEFIAWLIKGRG-OH [Val^8-Trp^16-Glu^22-Val^25-Ile^33-GLP-1(7-37)OH]
- GLP-1 receptor activation relative to Val^8-GLP-1(7-37)OH: 5 fold of Val^8-GLP-1(7-37)OH

Binder: HVEGTFTSDVSIYLEEQAAKEFIAWLVKGRG-OH [Val^8-Ile^18-Glu^22-GLP-1(7-37)OH]
- GLP-1 receptor activation relative to Val^8-GLP-1(7-37)OH: 4 fold of Val^8-GLP-1(7-37)OH

Binder: HVEGTFTSDVSSYLEGQALKEFIAWLVKGRG-OH [Val^8-Leu^25-GLP-1(7-37)OH]
- GLP-1 receptor activation relative to Val^8-GLP-1(7-37)OH: 0.5 fold of Val^8-GLP-1(7-37)OH

Binder: HVEGTFTSDVSSYLEGQAAKEFIEWLVKGRG-OH [Val^8-Glu^30-GLP-1(7-37)OH]
- GLP-1 receptor activation relative to Val^8-GLP-1(7-37)OH: 0.7 fold of Val^8-GLP-1(7-37)OH

Binder: HVEGTFTSDYSSWLEEQAAKEFIAWLVKGRG-OH [Val^8-Tyr^16-Trp^19-Glu^22-GLP-1(7-37)OH]
- GLP-1 receptor activation relative to Val^8-GLP-1(7-37)OH: 3.5 fold of Val^8-GLP-1(7-37)OH

Binder: HVEGTFTSDWSSYLEEQAAKEFIAWLIKGRG-OH [Val^8-Trp^16-Glu^22-Ile^33-GLP-1(7-37)OH]
- GLP-1 receptor activation relative to Val^8-GLP-1(7-37)OH: 4.1 fold of Val^8-GLP-1(7-37)OH

Binder: HVEGTFTSDVSFYLEEQAAKEFIAWLVKGRG-OH [Val^8-Phe^18-Glu^22-GLP-1(7-37)OH]
- GLP-1 receptor activation relative to Val^8-GLP-1(7-37)OH: 2 fold of Val^8-GLP-1(7-37)OH

Binder: HVEGTFTSDVSSYLEGQAAKEFIAWLVKGRH-OH [Val^8-His^37-GLP-1(7-37)OH]
- GLP-1 receptor activation relative to Val^8-GLP-1(7-37)OH: 1.2 fold of Val^8-GLP-1(7-37)OH

Binder: HVEGTFTSDYSSYLEGQAAKEFIAWLVKGRG-OH [Val^8-Tyr^16-GLP-1(7-37)OH]
- GLP-1 receptor activation relative to Val^8-GLP-1(7-37)OH: 2.5 fold of Val^8-GLP-1(7-37)OH

Binder: HVEGTWTSDVSSYLEEQAAKEFIAWLVKGRG-OH [Val^8-Trp^12-Glu^22-GLP-1(7-37)OH]
- GLP-1 receptor activation relative to Val^8-GLP-1(7-37)OH: 1.7 fold of Val^8-GLP-1(7-37)OH

Binder: HVEGTFTSDLSSYLEEQAAKEFIAWLVKGRG-OH [Val^8-Leu^16-Glu^22-GLP-1(7-37)OH]
- GLP-1 receptor activation relative to Val^8-GLP-1(7-37)OH: 4.3 fold of Val^8-GLP-1(7-37)OH

Binder: HVEGTFTSDWSSYLEEQAVKEFIAWLVKGRG-OH [Val^8-Trp^16-Glu^22-Val^25-GLP-1(7-37)OH]
- GLP-1 receptor activation relative to Val^8-GLP-1(7-37)OH: 4.4 fold of Val^8-GLP-1(7-37)OH

Binder: HVEGTWTSDVSSYLEGQAAKEFIAWLVKGRG-OH [Val^8-Trp^12-GLP-1(7-37)OH]
- GLP-1 receptor activation relative to Val^8-GLP-1(7-37)OH: 1.1 fold of Val^8-GLP-1(7-37)OH

Binder: HVEGTFTSDISSYLEEQAAKEFIAWLVKGRG-OH [Val^8-Ile^16-Glu^22-GLP-1(7-37)OH]
- GLP-1 receptor activation relative to Val^8-GLP-1(7-37)OH: 3.3 fold of Val^8-GLP-1(7-37)OH

Binder: HVDGIFTSDYSSYLEEQAAKEFIAWLVKGRG-OH [Val^8-Asp^9-Ile^11-Tyr^16-Glu^22-GLP-1(7-37)OH]
- GLP-1 receptor activation relative to Val^8-GLP-1(7-37)OH: 4.3 fold of Val^8-GLP-1(7-37)OH

Binder: HGEGTFTSDVSSYLEGQAAKEFIAWLVKGRG-OH [Gly^8-GLP-1(7-37)OH]
- GLP-1 receptor activation relative to Val^8-GLP-1(7-37)OH: 1.7 fold of Val^8-GLP-1(7-37)OH

Binder: HVEGTYTSDVSSYLEGQAAKEFIAWLVKGR-NH2 [Val^8-Tyr^12-GLP-1(7-36)NH2]
- GLP-1 receptor activation relative to Val^8-GLP-1(7-37)OH: 1.1 fold of Val^8-GLP-1(7-37)OH

Binder: HVEGTFTSDVSSFLEEQAAKEFIAWLVKGRG-OH [Val^8-Phe^19-Glu^22-GLP-1(7-37)OH]
- GLP-1 receptor activation relative to Val^8-GLP-1(7-37)OH: 1.5 fold of Val^8-GLP-1(7-37)OH

Binder: HVEGTFTSDVSSYLEEQAAKIFIAWLVKGRG-OH [Val^8-Glu^22-Ile^27-GLP-1(7-37)OH]
- GLP-1 receptor activation relative to Val^8-GLP-1(7-37)OH: 2 fold of Val^8-GLP-1(7-37)OH

Binder: HVEGTYTSDYSSYLEGQAAKEFIAWLVKGRG-OH [Val^8-Tyr^12-Tyr^16-GLP-1(7-37)OH]
- GLP-1 receptor activation relative to Val^8-GLP-1(7-37)OH: 1.5 fold of Val^8-GLP-1(7-37)OH
